Measurements reported in US20160310575A1 (INDIANA UNIVERSITY RESEARCH AND TECHNOLOGY, published 2016).
Non-standard residues stand in square brackets, D forms with d. No end group written: not given here. Aib = CC(C)(N)C(=O)O

Key:
human GIP-R = target: T1, human GIP-R (human, UniProt P48546 22-466); assay: cell-based or functional assay
T1 sequence (looked up): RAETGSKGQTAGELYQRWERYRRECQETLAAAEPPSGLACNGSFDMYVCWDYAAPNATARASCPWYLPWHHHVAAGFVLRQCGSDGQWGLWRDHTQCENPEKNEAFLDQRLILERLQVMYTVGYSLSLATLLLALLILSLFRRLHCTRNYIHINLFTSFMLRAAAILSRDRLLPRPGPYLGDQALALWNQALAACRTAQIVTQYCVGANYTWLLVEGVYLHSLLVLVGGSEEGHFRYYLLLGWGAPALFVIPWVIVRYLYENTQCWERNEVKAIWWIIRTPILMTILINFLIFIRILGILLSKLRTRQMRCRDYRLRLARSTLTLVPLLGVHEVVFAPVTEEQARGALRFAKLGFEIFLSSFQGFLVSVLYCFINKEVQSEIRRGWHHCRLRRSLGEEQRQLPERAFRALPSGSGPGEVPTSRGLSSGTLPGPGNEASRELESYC

human GLP-R = human GLP-R (human, UniProt P43220 24-463); assay: cell-based or functional assay

In the case of Y[Aib]EGTFTSDYSIYLDKQAA[Aib]EFVAWLLAGGPSSGAPPPSKLPETGGSGS-NH2 (also: PEG (site and size not given here)) [PEG-peptide-long24A], the “EC50 [nM], GIP-R (cAMP assay)” value (human GIP-R) is reported as 7.51 nM and the “EC50 [nM], GLP1-R (cAMP assay)” value (human GLP-R) is reported as 3.89 nM.
